Data on eleven molecules can be found in article PMC5986797, “Laminin heparin-binding peptides bind to several growth factors and enhance diabetic wound healing” (Nature Communications, 2018).

In one test the test system is PDGF-BB. The experiment in a line: ELISA: PDGF-BB binding to laminin LG domain / laminin peptide. Also noted: species or system human. The following applies: 1 µg/mL LG domain coated; 1 μg/mL GF; vs BSA-coated wells; n = 4. How it is done:
(§1) ELISA tests were performed as described above. In brief, ELISA plates were coated with 1 μg/mL of laminin alpha 3 LG domain recombinant protein, laminin alpha 4 LG domain recombinant protein (R&D Systems), laminin alpha 5 LG domain recombinant protein (LD BioPharma), or laminin peptide (sequences are described in Supplementary Table 1, chemically synthesized by Genscript) in PBS for 2 h at 37 °C. A concentration of 1 μg/mL of BSA served as non-binding protein control. After blocking with 2% BSA PBS-0.05% Tween 20 (PBS-T) solution, 1 μg/mL of the recombinant human proteins (VEGF-A121, VEGF-A165, PlGF-1, PlGF-2, PDGF-BB, or FGF-2) or 10 μg/mL of biotinylated heparin (Sigma-Aldrich) were added. Bound GF was detected with biotinylated antibodies for human VEGF-A, PlGF, PDGF-BB (R&D Systems, Catalog No. DY220, 1:180 dilution), or FGF-2 (R&D Systems). The antibodies were detected by streptavidin-HRP (R&D Systems).
(An ELISA detects its analyte on a solid surface through an enzyme-linked reagent.)

In another test the test system is VEGF-A121. The experiment in a line: ELISA: VEGF-A121 binding to laminin LG domain / laminin peptide. Further details: species or system human. The following applies: 1 µg/mL LG domain coated; 1 μg/mL GF; vs BSA-coated wells; n = 4. As to the method:
as §1

The subject of the next test is FGF-2. The experiment in a line: ELISA: FGF-2 binding to laminin LG domain / laminin peptide. Further details: species or system human. The following applies: 1 µg/mL LG domain coated; 1 μg/mL GF; vs BSA-coated wells; n = 4. As to the method: as §1
The subject of a further test is PlGF-2. The experiment in a line: ELISA: PlGF-2 binding to laminin LG domain / laminin peptide. Also noted: species or system human. The conditions noted are these: 1 µg/mL LG domain coated; 1 μg/mL GF; vs BSA-coated wells; n = 4. As to the method:
as §1

For another test, the system named is PlGF-1. The experiment in a line: ELISA: PlGF-1 binding to laminin LG domain / laminin peptide. The following applies: 1 µg/mL LG domain coated; 1 μg/mL GF; vs BSA-coated wells; n = 4. Further details: species or system human. As to the method: as §1
The next test relates to VEGF-A165. The test can be described thus: ELISA: VEGF-A165 binding to laminin LG domain / laminin peptide. Further details: species or system human. The following applies: 1 µg/mL LG domain coated; 1 μg/mL GF; vs BSA-coated wells; n = 4. As to the method:
as §1, with “ELISA plates were coated with 1 μg/mL of laminin alpha 3 LG domain” left out

The subject of test [1] is recombinant human laminin isoforms (–111, –211, –332, –411, –421, –511, and –521). The test can be described thus: ELISA: binding of full-length laminin isoforms to absorbed GFs and CXCL chemokines. The following applies: 50 nM GF coated, 10 nM laminin; signals greater than 0.1 indicate binding; n = 4. As to the method: Ninety-six-well ELISA plates (med-binding, Greiner Bio-One) were coated with 50 nM GFs in 100 µL/well of phosphate-buffered saline (PBS) at 37 °C for more than 2 h. After blocking with 2% BSA solution containing PBS and 0.05% Tween 20 (PBS-T), 10 nM recombinant human laminin isoforms (–111, –211, –332, –411, –421, –511, and –521) (>95% purity tested by SDS-PAGE, BioLamina) in 100 µL/well PBS were added. Bound laminin was detected with 100 µL/well rabbit anti-human LAMC1 polyclonal antibody (Assay Biotech, Catalog No. C13072, 1:1000 dilution in PBS) or rabbit anti-human LAMA3 polyclonal antibody (Assay Biotech, Catalog No. C13066, 1:1000 dilution in PBS). After incubation with biotinylated anti-rabbit antibody for 60 min at room temperature (RT), HRP-conjugated streptavidin (Jackson ImmunoResearch) was added. After 60 min of incubation at RT, 50 μL of TMB substrate (Sigma-Aldrich) was added. The reactions were stopped by adding 25 μL of 2 N H2SO4. Subsequently, the absorbance at 450 nm was measured with a reference of 570 nm.

B1: LAMA3_2928–3150: recombinant human LAMA3 LG domain Ser2928-Cys3150 (linker domain and LG4 domain), 6 His, HEK-293F (protein)
chain: SLNKPPFLMLLKGSTRFNKTKTFRINQLLQDTPVASPRSVKVWQDACSPLPKTQANHGALQFGDIPTSHLLFKLPQELLKPRSQFAVDMQTTSSRGLVFHTGTKNSFMALYLSKGRLVFALGTDGKKLRIKSKEKCNDGKWHTVVFGHDGEKGRLVVDGLRAREGSLPGNSTISIRAPVYLGSPPSGKPKSLPTNSFVGCLKNFQLDSKPLYTPSSSFGVSSC
modifications: left off: His6, N-terminal, state not stated
notes: recombinant human LAMA3 LG domain Ser2928-Cys3150 (linker domain and LG4 domain), 6 His, HEK-293F
On to B1, for which the “binding to PDGF-BB (ELISA), recombinant LG domains” value in the test with PDGF-BB is listed as “bound”. The “binding to VEGF-A121 (ELISA), recombinant LG domains” value in the test on VEGF-A121 is listed as “did not show any binding”. Moreover, in the test on FGF-2, the “binding to FGF-2 (ELISA), recombinant LG domains” value was “bound”. Also, the “binding to PlGF-2 (ELISA), recombinant LG domains” value in the test on PlGF-2 was “bound”. For the same molecule, in the test with PlGF-1, the “binding to PlGF-1 (ELISA), recombinant LG domains” value is listed as “did not show any binding”. In addition, the “binding to VEGF-A165 (ELISA), recombinant LG domains” value with VEGF-A165 is “bound”.

B2: PlGF-1: placental growth factor, PeproTech (protein)
chain: LPAVPPQQWALSAGNGSSEVEVVPFQEVWGRSYCRALERLVDVVSEYPSEVEHMFSPSCVSLLRCTGCCGDENLHCVPVETANVTMQLLKIRSGDRPSYVELTFSQHVRCECRPLREKMKPERCGDAVPRR
For the molecule B2, the “binding to all tested laminin isoforms (ELISA, A450 nm)” value (shortened to “binding to all tested laminin isoforms”) in test [1] is “did not show binding”.

B3: FGF-10: fibroblast growth factor, PeproTech (protein)
chain: QALGQDMVSPEATNSSSSSFSSPSSAGRHVRSYNHLQGDVRWRKLFSFTKYFLKIEKNGKVSGTKKENCPYSILEITSVEIGVVAVKAINSNYYLAMNKKGKLYGSKEFNNDCKLKERIEENGYNTYASFNWQHNGRQMYVALNGKGAPRRGQKTRRKNTSAHFLPMVVHS
Consider B3, for which, in test [1], the “binding to all tested laminin isoforms” value is reported as “bound”.

B4: BDNF: brain-derived neurotrophic factor, PeproTech (protein, UniProt P23560 19-247, looked up)
Neurotrophic factor BDNF …: APMKEANIRGQGGLAYPGVRTHGTLESVNGPKAGSRGLTSLADTFEHVIEELLDEDQKVRPNEENNKDADLYTSRVMLSSQVPLEPPLLFLLEEYKNYLDAANMSMRVRRHSDPARRGELSVCDSISEWVTAADKKTAVDMSGGTVTVLEKVPVSKGQLKQYFYETKCNPMGYTKEGCRGIDKRHWNSQCRTTQSYVRALTMDSKKRIGWRFIRIDTSCVCTLTIKRGR
Consider B4, for which the “binding to all tested laminin isoforms” value in test [1] was “strong binding”.

B5: FGF-7: fibroblast growth factor, PeproTech (protein)
chain: CNDMTPEQMATNVNCSSPERHTRSYDYMEGGDIRVRRLFCRTQWYLRIDKRGKVKGTQEMKNNYNIMEIRTVAVGIVAIKGVESEFYLAMNKEGKLYAKKECNEDCNFKELILENHYNTYASAKWTHNGGEMFVALNQKGIPVRGKKTKKEQKTAHFLPMAIT
Consider B5, for which the “binding to all tested laminin isoforms” value in test [1] is “bound”.

B6: LAMA4_826–1816: laminin alpha 4 LG domain recombinant protein (R&D Systems) (protein)
chain: RSVASKIQVSMMFDGQSAVEVHSRTSMDDLKAFTSLSLYMKPPVKRPELTETADQFILYLGSKNAKKEYMGLAIKNDNLVYVYNLGTKDVEIPLDSKPVSSWPAYFSIVKIERVGKHGKVFLTVPSLSSTAEEKFIKKGEFSGDDSLLDLDPEDTVFYVGGVPSNFKLPTSLNLPGFVGCLELATLNNDVISLYNFKHIYNMDPSTSVPCARDKLAFTQSRAASYFFDGSGYAVVRDITRRGKFGQVTRFDIEVRTPADNGLILLMVNGSMFFRLEMRNGYLHVFYDFGFSGGPVHLEDTLKKAQINDAKYHEISIIYHNDKKMILVVDRRHVKSMDNEKMKIPFTDIYIGGAPPEILQSRALRAHLPLDINFRGCMKGFQFQKKDFNLLEQTETLGVGYGCPEDSLISRRAYFNGQSFIASIQKISFFDGFEGGFNFRTLQPNGLLFYYASGSDVFSISLDNGTVIMDVKGIKVQSVDKQYNDGLSHFVISSVSPTRYELIVDKSRVGSKNPTKGKIEQTQASEKKFYFGGSPISAQYANFTGCISNAYFTRVDRDVEVEDFQRYTEKVHTSLYECPIESSPLFLLHKKGKNLSKPKASQNKKGGKSKDAPSWDPVALKLPERNTPRNSHCHLSNSPRAIEHAYQYGGTANSRQEFEHLKGDFGAKSQFSIRLRTRSSHGMIFYVSDQEENDFMTLFLAHGRLVYMFNVGHKKLKIRSQEKYNDGLWHDVIFIRERSSGRLVIDGLRVLEESLPPTEATWKIKGPIYLGGVAPGKAVKNVQINSIYSFSGCLSNLQLNGASITSASQTFSVTPCFEGPMETGTYFSTEGGYVVLDESFNIGLKFEIAFEVRPRSSSGTLVHGHSVNGEYLNVHMKNGQVIVKVNNGIRDFSTSVTPKQSLCDGRWHRITVIRDSNVVQLDVDSEVNHVVGPLNPKPIDHREPVFVGGVPESLLTPRLAPSKPFTGCIRHFVIDGHPVSFSKAALVSGAVS
For the molecule B6, the “binding to PDGF-BB (ELISA), recombinant LG domains” value in the test with PDGF-BB is reported as “bound”. Moreover, in the test on VEGF-A121, the “binding to VEGF-A121 (ELISA), recombinant LG domains” value is listed as “did not show any binding”. Besides, in the test on FGF-2, the “binding to FGF-2 (ELISA), recombinant LG domains” value is on record as “bound”. Further, the “binding to PlGF-2 (ELISA), recombinant LG domains” value with PlGF-2 was “bound”. In addition, the “binding to PlGF-1 (ELISA), recombinant LG domains” value with PlGF-1 is on record as “did not show any binding”. For the same molecule, in the test with VEGF-A165, the “binding to VEGF-A165 (ELISA), recombinant LG domains” value was “bound”.

B7: PDGF-CC: platelet-derived growth factor, PeproTech (protein)
chain: VVDLNLLTEEVRLYSCTPRNFSVSIREELKRTDTIFWPGCLLVKRCGGNCACCLHNCNECQCVPSKVTKKYHEVLQLRPKTGVRGLHKSLTDVALEHHEECDCVCRGSTGG
Consider B7, for which, in test [1], the “binding to all tested laminin isoforms” value is “bound”.

B8: BMP-3: bone morphogenetic protein, PeproTech (protein)
chain: QWIEPRNCARRYLKVDFADIGWSEWIISPKSFDAYYCSGACQFPMPKSLKPSNHATIQSIVRAVGVVPGIPEPCCVPEKMSSLSILFFDENKNVVLKVYPNMTVESCACR
Take B8: the “binding to all tested laminin isoforms” value in test [1] is reported as “showed binding”.

B9: PlGF-2: placental growth factor (PlGF)-2, PeproTech (protein)
chain: LPAVPPQQWALSAGNGSSEVEVVPFQEVWGRSYCRALERLVDVVSEYPSEVEHMFSPSCVSLLRCTGCCGDENLHCVPVETANVTMQLLKIRSGDRPSYVELTFSQHVRCECRPLREKMKPERRRPKGRGKRRREKQRPTDCHLCGDAVPRR
In the case of B9, the “binding to all tested laminin isoforms” value in test [1] is listed as “bound”.

B10: BMP-7: bone morphogenetic protein, PeproTech, produced in eukaryotic cells (protein)
chain: STGSKQRSQNRSKTPKNQEALRMANVAENSSSDQRQACKKHELYVSFRDLGWQDWIIAPEGYAAYYCEGECAFPLNSYMNATNHAIVQTLVHFINPETVPKPCCAPTQLNAISVLYFDDSSNVILKKYRNMVVRACGCH
Regarding B10, the “binding to all tested laminin isoforms” value in test [1] is “not”.

B11: FGF-6: fibroblast growth factor, PeproTech (protein)
chain: SPAGTRANNTLLDSRGWGTLLSRSRAGLAGEIAGVNWESGYLVGIKRQRRLYCNVGIGFHLQVLPDGRISGTHEENPYSLLEISTVERGVVSLFGVRSALFVAMNSKGRLYATPSFQEECKFRETLLPNNYNAYESDLYQGTYIALSKYGRVKRGSKVSPIMTVTHFLPRI
As for B11, the “binding to all tested laminin isoforms” value in test [1] is “did not”.
